Source: patent US20050124803A1

Key:
[1] = target: Ae. aegypti BBMV (brush border membrane vesicles of Aedes aegypti larvae; toxin receptors on them not identified) (Aedes aegypti); experiment: saturation binding of 125I-toxin to BBMV, Hill fit
[2] = target: An. quadrimaculatus BBMV (brush border membrane vesicles of Anopheles quadrimaculatus larvae; toxin receptors on them not identified) (Anopheles quadrimaculatus); experiment: saturation binding of 125I-toxin to BBMV, Hill fit
[3] = target: Cx. quinquefasciatus BBMV (brush border membrane vesicles of Culex quinquefasciatus larvae; toxin receptors on them not identified) (Culex quinquefasciatus); experiment: saturation binding of 125I-toxin to BBMV, Hill fit
[4] = target: Cx. quinquefasciatus BBMV (brush border membrane vesicles of Culex quinquefasciatus larvae; toxin receptors on them not identified) (Culex quinquefasciatus); experiment: saturation binding of 125I-toxin to BBMV, Hill fit (repeats Table 3); parameters: Bmax: unit not given here
[5] = target: Cx. quinquefasciatus BBMV (brush border membrane vesicles of Culex quinquefasciatus larvae; toxin receptors on them not identified) (Culex quinquefasciatus); experiment: saturation binding of 125I-toxin to BBMV, Hill fit; parameters: Bmax: unit not given here

Binder | Bmax [1] [fmol/µg] | K′D (composite dissociation constant) [1] [nM] | Bmax [2] [fmol/µg] | K′D (composite dissociation constant) [2] [nM] | Bmax [3] [fmol/µg] | K′D (composite dissociation constant) [3] [nM] | Bmax [4] | K′D (composite dissociation constant) [4] [nM] | Bmax [5] | K′D (composite dissociation constant) [5] [nM]
4BRA (Cry4Ba with R203 mutated to A, trypsin-activated toxin) (protein, 125I-iodinated (iodo-bead, sites not stated) where used as labelled toxin) AINSSSVSTALKVAGAILKFVNPPAGTVLTVLSAVLPILWPTNTPTPERVWNDFMTNTGNLIDQTVTAYVRTDANAKMTVVKDYLDQYTTKFNTWKREPNNQSYRTAVITQFNLTSAKLRETAVYFSNLVGYELLLLPIYAQVANFNLLLIRDGLINAQEWSLAASAGDQLYNTMVQYTKEYIAHSITWYNKGLDVLRNKSNGQWITFNDYKREMTIQVLDILALFASYDPRRYPADKIDNTKLSKTEFTREIYTALVESPSSKSIAALEAALTRDVHLFTWLKRVDFWTNTIYQDLRFLSANKIGFSYTNSSAMQESGIYGSSGFGSNLTHQIQLNSNVYKTSITDTSSPSNRVTKMDFYKIDGTLASYNSNITPTPEGLRTTFFGFSTNENTPNQPTVNDYTHILSYIKTDVIDYNSNRVSFAWTHKIVDPNNQIYTDAITQVPAVKSNFLNATAKVIKGPGHTGGDLVALTSNGTLSGRMEIQCKTSIFNDPTRSYGLRIRYAANSPIVLNVSYVLQGVSRGTTISTESTFSRPNNIIPTDLKYEEFRYKDPFDAIVPMRLSSNQLITIAIQPLNMTSNNQVIIDRIEIIPITQSVLDET | 17.2 | 0.5 | 35.2 | 3.1 | 13.1 | 6.9 | 13.1 | 6.9 | – | –
4BL3PAT (4BRA with D454 replaced with P and AT inserted after position 454, loop 3 of domain II) (protein, 125I-iodinated (iodo-bead, sites not stated) where used as labelled toxin) AINSSSVSTALKVAGAILKFVNPPAGTVLTVLSAVLPILWPTNTPTPERVWNDFMTNTGNLIDQTVTAYVRTDANAKMTVVKDYLDQYTTKFNTWKREPNNQSYRTAVITQFNLTSAKLRETAVYFSNLVGYELLLLPIYAQVANFNLLLIRDGLINAQEWSLAASAGDQLYNTMVQYTKEYIAHSITWYNKGLDVLRNKSNGQWITFNDYKREMTIQVLDILALFASYDPRRYPADKIDNTKLSKTEFTREIYTALVESPSSKSIAALEAALTRDVHLFTWLKRVDFWTNTIYQDLRFLSANKIGFSYTNSSAMQESGIYGSSGFGSNLTHQIQLNSNVYKTSITDTSSPSNRVTKMDFYKIDGTLASYNSNITPTPEGLRTTFFGFSTNENTPNQPTVNDYTHILSYIKTDVIPATYNSNRVSFAWTHKIVDPNNQIYTDAITQVPAVKSNFLNATAKVIKGPGHTGGDLVALTSNGTLSGRMEIQCKTSIFNDPTRSYGLRIRYAANSPIVLNVSYVLQGVSRGTTISTESTFSRPNNIIPTDLKYEEFRYKDPFDAIVPMRLSSNQLITIAIQPLNMTSNNQVIIDRIEIIPITQSVLDET | – | – | – | – | – | – | – | – | 9.3 | 0.9
